These results are taken from article PMC6369299, “A heterodimeric glutathione S-transferase that stereospecifically breaks lignin's β(R)-aryl ether bond reveals the diversity of bacterial β-etherases” (The Journal of Biological Chemistry, 2018).

One data set addresses T1, NaLigF1 (Novosphingobium aromaticivorans, UniProt Q2G6J3).
T1 construct: gene Saro_2091; recombinant, purified as described previously
T1 sequence (Q2G6J3 11-257 limits assumed): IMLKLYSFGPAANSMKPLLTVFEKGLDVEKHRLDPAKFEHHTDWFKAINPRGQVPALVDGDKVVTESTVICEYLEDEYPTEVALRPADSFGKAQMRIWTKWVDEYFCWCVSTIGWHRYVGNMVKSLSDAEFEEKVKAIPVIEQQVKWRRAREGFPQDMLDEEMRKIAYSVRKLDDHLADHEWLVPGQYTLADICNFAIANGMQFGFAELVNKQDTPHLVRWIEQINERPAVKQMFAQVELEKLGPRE
Briefly: HPLC end-point conversion of MPHPV. The data set is classed as biochemical. As to conditions: β(S)-MPHPV left after BaeA+BaeB reaction on racemic MPHPV; GSH, 25 mM Tris-HCl pH 8.0, 25 mM NaCl, 30 °C.

A further data set deals with T2, NaLigE (Novosphingobium aromaticivorans, UniProt Q2G5N2).
T2 construct: gene Saro_2405; recombinant from E. coli; N-terminal His8 tag cut by TEV (SAIAG- left); homodimer
T2 sequence (Q2G5N2 1-279): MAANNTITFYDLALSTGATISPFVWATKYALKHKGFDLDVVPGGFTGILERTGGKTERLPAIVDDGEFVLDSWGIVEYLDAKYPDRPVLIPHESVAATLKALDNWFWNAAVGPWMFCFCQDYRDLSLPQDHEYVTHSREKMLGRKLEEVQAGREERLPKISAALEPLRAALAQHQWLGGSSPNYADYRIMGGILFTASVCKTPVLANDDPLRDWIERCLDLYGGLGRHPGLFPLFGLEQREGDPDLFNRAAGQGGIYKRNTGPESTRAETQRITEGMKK
Briefly: initial rate of GS-HPV formation by HPLC, Michaelis-Menten fit. The data set is classed as biochemical. As to conditions: racemic MPHPV added, concentration counted as β(R); 5 mM GSH, 25 mM Tris-HCl pH 8.0, 25 mM NaCl, 25 °C; per subunit of the homodimer. From the text: initial rate of GS-HPV formation by HPLC, Michaelis-Menten fit on NaLigE

Substrate in data set [1]: COc1cc(C(=O)[C@@H](CO)Oc2ccccc2OC)ccc1O
The data set is described as above. The data set is classed as biochemical, Novosphingobium aromaticivorans. As to conditions: racemic MPHPV added, concentration counted as β(R), 5 mM GSH, 25 mM Tris-HCl pH 8.0, 25 mM NaCl, 25 °C, per heterodimer. From the text:
initial rate of GS-HPV formation by HPLC, Michaelis-Menten fit on BaeAB

Positions count from the first letter of the chain named. Names and notes keep the numbering of the source.

Regarding `COc1cc(C(=O)[C@H](CO)Oc2ccccc2OC)ccc1O` [β(S)-MPHPV], the “HPLC end-point conversion of MPHPV” value on NaLigF1 is “upon the addition of NaLigF1, the MPHPV was completely converted into GS-HPV and guaiacol”.

As usually defined, the Km is the concentration of substrate that gives half-maximal velocity. Turning to `COc1cc(C(=O)[C@@H](CO)Oc2ccccc2OC)ccc1O` [β(R)-MPHPV], the Km on NaLigE came to 7 ± 1 µM.

B1: BaeAB (Novosphingobium aromaticivorans DSM 12444) (protein)
chain: MDEVSLYHWEPNANSGKPMLALMEKGVPFSSHYIDMLQFDQHKPEYLAINPQGTIPAMTHNGQVLTESTAIMEYVNDRFDGPDLMPADAQDRWRVRWWMKFMDQWLGPSFSMIGWSVFVGPMVRQRDPAELAAAIDRIPLPERRTAWRKAINGDFSESEMAESRRRVGLGIAKLEEELGKRPYVGSNQYSLADINIFNSTYSLPISQPDLAGKDRTPNIMRWLKRVYTREAVKKTWAMGKTDLAHRYGLIMAEIEG
notes: co-expressed in E. coli B834, His8 tag on BaeB cut by TEV leaving SAIAG- linked to Ser2 (Met1 not coded); heterodimer, ~59 kDa by GPC; with Glutathione S-transferase-like protein (beta-etherase subunit BaeB)
The kcat is the number of substrate molecules converted per active site and unit of time at saturation. One may read the kcat/Km as the turnover number divided by the Michaelis constant. Consider B1, for which, in data set [1], the Km was found to be 20 ± 3 µM, the kcat is 2.9 ± 0.3 s⁻¹ and the kcat/Km is 150000 ± 30000 M⁻¹ s⁻¹.

B2: BaeAB (Novosphingobium aromaticivorans DSM 12444; N14A) (protein)
chain: B1 chain with N14A
notes: as for B1
Regarding B2, in data set [1], the Km was found to be 250 ± 60 µM, the catalytic constant (kcat) was found to be 0.14 ± 0.02 s⁻¹ and the catalytic efficiency (kcat/Km) is 500 ± 200 M⁻¹ s⁻¹.

B3: BaeAB (Novosphingobium aromaticivorans DSM 12444; S15A) (protein)
chain: B1 chain with S15A
notes: as for B1
With B3, in data set [1], the Km came out at 100 ± 20 µM, the kcat stood at 2.4 ± 0.3 s⁻¹ and the specificity constant (kcat/Km) amounted to 23000 ± 6000 M⁻¹ s⁻¹.
